The target in experiment [1] is T1, human neonatal Fc receptor FcRn/β2m, soluble recombinant (human, UniProt P55899 24-297; P61769 21-119, alexa-488 label (Examples 2-4); minimal chemical biotinylation with Sulfo-NHS-LC-LC-Biotin (Examples 5-6)).
T1 construct: Heterodimer; extracellular domain is inferred; also called hFcRn/β2M; hsFcRn
Put plainly: flow cytometry, labelled FcRn on CHO-displayed HSA, pH 7.3. An excerpt:
(§1) Background fluorescence due to non-specific binding of the labelled FcRn to the cells was subtracted from the value obtained.

Experiment [2] concerns the target T1, human neonatal Fc receptor FcRn/β2m, …. Briefly: flow cytometry, labelled FcRn on CHO-displayed HSA, pH 5.4.
Excerpt: as §1
Background: Flow cytometry measures light scatter and fluorescence of single cells or particles in a stream.

The target of experiment [3] is T2, HSA [K573Y], soluble (human, UniProt P02768 25-609). Put plainly: SPR, FcRn over immobilised HSA, pH 6.0. Background: In SPR one partner is held on a chip, and binding of the other changes the refractive index at the surface.
Experiment [4] has as its target T3, HSA [Q522L/G572R], soluble (human, UniProt P02768 25-609). Briefly: SPR, FcRn over immobilised HSA, pH 6.0.
The target in experiment [5] is HSA [Q522L/A552V], soluble (human, UniProt P02768 25-609). Put plainly: SPR, FcRn over immobilised HSA, pH 6.0.
The target of experiment [6] is T4, HSA [A552V/G572R], soluble (human, UniProt P02768 25-609).
T4 construct: also called A522V/G572R
Put plainly: SPR, FcRn over immobilised HSA, pH 6.0.

The next experiment deals with HSA [G572R], soluble (human, UniProt P02768 25-609). Briefly: SPR, FcRn over immobilised HSA, pH 6.0.
Experiment [7] has as its target T2, HSA [K573Y], soluble. Put plainly: SPR, FcRn over immobilised HSA, pH 6.0, 1:1 model; pH 6.0. How it is done: (§2) Spot 3 of each flow cell was activated/deactivated and used for reference subtraction. The flow rate of FcRn/β2m was kept constant at 30 μL/min
(§3) A concentration range of 2 to 0.007 μM (pH6.0) and 20 to 0.078 μM (pH7.3) was used and association and dissociation phases were monitored for 180 and 600 seconds respectively.
(§4) Regeneration of the surface was performed as previously described.

The target of experiment [8] is T3, HSA [Q522L/G572R], soluble. Described as above. As to the method:
as §2, §3, §4

The target in experiment [9] is T4, HSA [A552V/G572R], soluble. Described as above. As to the method:
as §2, §3, §4

Another experiment deals with T5, HSA WT, soluble (human, UniProt P02768 25-609).
T5 construct: also called wild-type HSA; recombinant wild-type HSA
Briefly: SPR, FcRn over immobilised HSA, pH 6.0.

T1 sequence (P55899 24-297 limits assumed, chain 1 of 2): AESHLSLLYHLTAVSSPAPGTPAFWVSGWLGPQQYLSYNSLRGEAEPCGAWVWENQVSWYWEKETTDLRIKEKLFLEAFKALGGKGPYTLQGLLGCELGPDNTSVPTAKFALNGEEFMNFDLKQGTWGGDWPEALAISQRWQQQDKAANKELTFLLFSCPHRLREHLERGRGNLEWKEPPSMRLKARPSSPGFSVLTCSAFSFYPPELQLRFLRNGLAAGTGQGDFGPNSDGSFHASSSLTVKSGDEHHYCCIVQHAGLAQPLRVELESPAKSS
T1 sequence (P61769 21-119 limits assumed, chain 2 of 2): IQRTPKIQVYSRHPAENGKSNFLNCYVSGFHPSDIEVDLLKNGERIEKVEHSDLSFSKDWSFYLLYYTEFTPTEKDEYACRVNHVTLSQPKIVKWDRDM

B1: HSA [K317E/M329V/K372E/F377I/I388T/A552V/G572R] (clone 3.9), membrane-tethered on CHO cells (other)
chain: DAHKSEVAHRFKDLGEENFKALVLIAFAQYLQQCPFEDHVKLVNEVTEFAKTCVADESAENCDKSLHTLFGDKLCTVATLRETYGEMADCCAKQEPERNECFLQHKDDNPNLPRLVRPEVDVMCTAFHDNEETFLKKYLYEIARRHPYFYAPELLFFAKRYKAAFTECCQAADKAACLLPKLDELRDEGKASSAKQRLKCASLQKFGERAFKAWAVARLSQRFPKAEFAEVSKLVTDLTKVHTECCHGDLLECADDRADLAKYICENQDSISSKLKECCEKPLLEKSHCIAEVENDEMPADLPSLAADFVESKDVCENYAEAKDVFLGVFLYEYARRHPDYSVVLLLRLAKTYETTLEKCCAAADPHECYAEVFDEIKPLVEEPQNLTKQNCELFEQLGEYKFQNALLVRYTKKVPQVSTPTLVEVSRNLGKVGSKCCKHPEAKRMPCAEDYLSVVLNQLCVLHEKTPVSDRVTKCCTESLVNRRPCFSALEVDETYVPKEFNAETFTFHADICTLSEKERQIKKQTALVELVKHKPKATKEQLKAVMDDFVAFVEKCCKADDKETCFAEERKKLVAASQAALGL
notes: not shown: Myc tag and PDGFR transmembrane domain
On to B1, for which, in experiment [1], the “fold change to WT” value worked out at 1.8 fold and the geoMFI is 28.8. Moreover, in experiment [2], the “fold change to WT” value was found to be 20.8 fold and the geoMFI came out at 34800.

B2: mouse FcRn/β2m, soluble recombinant (receptor)
chain: SETRPPLMYHLTAVSNPSTGLPSFWATGWLGPQQYLTYNSLRQEADPCGAWMWENQVSWYWEKETTDLKSKEQLFLEALKTLEKILNGTYTLQGLLGCELASDNSSVPTAVFALNGEEFMKFNPRIGNWTGEWPETEIVANLWMKQPDAARKESEFLLNSCPERLLGHLERGRRNLEWKEPPSMRLKARPGNSGSSVLTCAAFSFYPPELKFRFLRNGLASGSGNCSTGPNGDGSFHAWSLLEVKRGDEHHYQCQVEHEGLAQPLTVDLDSSARSS
b2m: IQKTPQIQVYSRHPPENGKPNILNCYVTQFHPPHIEIQMLKNGKKIPKVEMSDMSFSKDWSFYILAHTEFTPTETDTYACRVKHASMAEPKTVYWDRDM
notes: Extracellular domain inferred from 'soluble'; also called murineFcRn; murine FcRn/β2m
Regarding B2, the binding result with HSA [K573Y], soluble [3] is “no binding (tested: 2 µM)”; in experiment [4] it was “no binding (tested: 2 µM)”; in [5], “no binding (tested: 2 µM)”; in experiment [6], “no binding (tested: 2 µM)”; in the experiment with HSA [G572R], soluble, “no binding (tested: 2 µM)”.

B3: rat FcRn/β2m, soluble recombinant (receptor)
chain: AEPRLPLMYHLAAVSDLSTGLPSFWATGWLGAQQYLTYNNLRQEADPCGAWIWENQVSWYWEKETTDLKSKEQLFLEAIRTLENQINGTFTLQGLLGCELAPDNSSLPTAVFALNGEEFMRFNPRTGNWSGEWPETDIVGNLWMKQPEAARKESEFLLTSCPERLLGHLERGRQNLEWKEPPSMRLKARPGNSGSSVLTCAAFSFYPPELKFRFLRNGLASGSGNCSTGPNGDGSFHAWSLLEVKRGDEHHYQCQVEHEGLAQPLTVDLDSPARSS
b2m: IQKTPQIQVYSRHPPENGKPNFLNCYVSQFHPPQIEIELLKNGKKIPNIEMSDLSFSKDWSFYILAHTEFTPTETDVYACRVKHVTLKEPKTVTWDRDM
notes: Extracellular domain inferred from 'soluble'
Regarding B3, the Kd amounted to 0.989 µM in the experiment with HSA [K573Y], soluble [7]; 4.75 µM in experiment [8]; 4.82 µM in experiment [9]. Further, the binding result was “no binding (tested: 2 µM)” with HSA WT, soluble; “no binding (tested: 2 µM)” in [5]; “no binding (tested: 2 µM)” with HSA [G572R], soluble.

Broadly, the Kd is the constant that tells how readily two partners part at equilibrium. Read a high Kd as weaker binding.

Values taken from patent US20200325209A1 (CSL, published 2020).
